The assay deals with VN-HOXA9 (human) (UniProt P31269). Put plainly: split reporter (BiFC, NanoBiT); individual BiFC in live HEK293T cells: plix-VN-HOXA9, plix-CC-ORF and plix-mCherry co-transfected, 18 h with doxycycline 100 ng/mL, confocal imaging; HOXA9/PBX1 as calibrator.
Sequence of UniProt P31269 (P31269 whole entry): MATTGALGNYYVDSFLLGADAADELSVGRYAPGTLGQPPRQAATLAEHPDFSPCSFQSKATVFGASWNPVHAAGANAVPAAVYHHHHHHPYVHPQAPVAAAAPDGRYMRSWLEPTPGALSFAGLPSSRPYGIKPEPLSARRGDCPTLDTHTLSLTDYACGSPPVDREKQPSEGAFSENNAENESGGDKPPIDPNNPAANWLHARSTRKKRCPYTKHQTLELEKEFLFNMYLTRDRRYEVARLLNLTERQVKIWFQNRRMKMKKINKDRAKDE

On to “CC-C6orf201 (from UniProt B3KW47 1-115) (natural protein)”, for which the BiFC fluorescence as percent of HOXA9/PBX1 BiFC was below 15%.

The record behind these values is publication PMC9818449.
